In patent US11795488B2, “Methods for enzymatic peptide ligation” (NANYANG TECHNOLOGICAL UNIVERSITY, priority 2016, dated 2023):
Where two headings read alike, the source gives them in different places.

Key:
[1] = Proteolytic and protein ligation activity of AEP_C13C04; assay type: biochemical
Description: Based on the prediction of the sequence alignment, AEP_C13C04 contained the conserved structural motif identical to Quicklase (247-264). […] The cDNA of AEP_C13C04 was then subsequently synthesized and subcloned into pet28b in a similar way as Quicklase.

OaAEP1 = test: Self-activation (acid-induced self-cleavage) of OaAEP1 and mutants, SDS PAGE; assay type: biochemical, Oldenlandia affinis; conditions: acidic pH
Procedure: To self-activate OaAEP1, 1 mM EDTA and 0.5 mM Tris (2-carboxyethyl) phosphine hydrochloride were added to the immature protein and the pH of the solution was adjusted to 4 with glacial acetic acid. Fractions containing the protein (as analyzed by SDS-PAGE) were pooled and then incubated for 3 to 16 hours at room temperature or 37° C. Protein precipitation at this pH allowed removal of the bulk of the contaminating proteins by centrifugation. Activated proteins were concentrated by ultracentrifugation using a 50 kDa cutoff concentrator (Sartorius) and stored at −80° C.
OaAEP1 was cloned and expressed in E. coli as an ubiquitin fusion protein as reported earlier (FIG. 2) (Harris, K. S., et al., Nat Commun, 2015. 6: p. 10199). Using ion exchange and size exclusion chromatography (SEC), sufficient amounts of pure protein suitable for enzymatic and structural analysis were obtained (FIG. 2B). At the neutral pH of purification (pH=7.4), OaAEP1 was mainly present as a heterodimer, where both monomers are in their zymogenic form, but only one monomer had retained in addition the ubiquitin and N-terminal His-tag, while the fusion moiety was cleaved in the other monomer (labeled as “His-Ub-AEP-FL” and “AEP-FL” in FIG. 2B and FIG. 2C). This heterodimer was subjected to crystallization trials for structural studies (see below). In agreement with reference (Harris, K. S., et al., Nat Commun, 2015. 6: p. 10199), activation of OaAEP1 was optimum for pH values in the range of 3.4-4.0 (FIG. 2D). Following activation, OaAEP1 converts to a monomer in solution according to SEC analysis (“AEP-holo” in FIG. 2C). To test the ability of the protein to be activated in trans, the catalytic residue Cys217 was mutated into Ser217.
Since the crystallization conditions are compatible with OaAEP1 activation, the present crystal structure is likely to have captured one of the conformational states occurring along the activation pathway. To determine whether Gln347 belongs to the segment recognized and cleaved during self-activation, mutagenesis experiments targeting region 346-351 of the OaAEP1 protein were performed (FIG. 4C). The role of Gln347 in OaAEP1 auto-activation was particularly assessed by mutating this residue to Ala, and whether enzyme activation was abolished was examined. Only little impact was found on the mutant enzyme activation (FIG. 4C). Residues Asn346, Asp349 and Asp351 that are next to Gln347 were then targeted. […] Thus, trans-activation requires the presence of at least one of the four Asx/Gln residues (with a slight preference for Asp349 or Asp351) found in this segment of the linker.

peptide substrate = test: Comparison of cyclization efficiency of gate-keeper Cys247 mutants (MALDI-TOF MS); assay type: biochemical
Procedure: Native and modified amino acids were purchased from Sigma-Aldrich (USA). All peptides used in this manuscript were synthesized in-house using the solid-phase method and HPLC purified. Cyclization assays were performed in 50-μl reaction mixtures containing 20 mM phosphate buffer, ligases (5 to 700 nM) and peptide substrates (10 to 300 μM). Each reaction was performed in triplicate at 37° C. and quenched by adding 5 μl of 1 M HCl solution. The peptides were separated by using a reversed-phase C18 analytical column (150×2.1 mm, Vydac) with a linear gradient from 10% to 50% acetonitrile over 15 min on a Nexera UHPLC system (Shimadzu). For kinetic analysis, the concentrations of WT OaAEP1, mutant OaAEP1, and butelase 1 were fixed at 700 nM, 50 nM, and 20 nM, respectively. The cyclization velocities were calculated by converting the HPLC-peak areas of remained linear precursors or the cyclized products into concentrations. The identity of each HPLC peak was analyzed by MALDI-TOF MS (ABI 4800 MALDI TOF/TOF). The velocities were input into GraphPad Prism (GraphPad Software, San Diego) to obtain the Michaelis-Menten curve and the kinetic parameters (kcat and Km). Comparison for the cyclization efficiency of various OaAEP1 mutants were performed in a volume of 20 μl of the reaction mixture and analyzed by MALDI-TOF MS after 10 mins or 1 hour ligation reaction.
The pre-ligation conformation of OaAEP1 captured in the present structure was then analyzed to identify several key features that could differentiate an AEP protease from an AEP-like ligase. […] In contrast to AEP proteases, the surface of OaAEP1 facing the catalytic Cys217 appears to be more widely open. Three cysteine residues (Cys247, Cys250, Cys264) are aligned along a shallow cleft at the surface of the enzyme (FIGS. 3C and 3E). Unlike the surface of AEP proteases that contains several bulges, both butelase 1 (using a homology model based on OaAEP1b) and OaAEP1 have residues with smaller side-chains along this patch. A disulfide bond is formed between Cys250 and Cys264, which are conserved in AEP-like ligases butelase 1 and OaAEP1b. This covalent bond is likely to stabilize the local structure and provide an adequate surface allowing the approach of an N-terminal amine incoming group. Conversely, the corresponding surface patch of AEP proteases (PDB: 4AWA) is lined with residues having bulky side-chains like Tyr (FIG. 3E) blocking this channel. It was therefore hypothesized that residue Cys247 which is located at the extremity of the substrate channel is likely to function as a final nucleophile filter (or “gate-keeper”), allowing attack from the N-terminal amine to complete the ligation reaction. […]

B1: AEP_C13C04: Peptidase C13, legumain [OMO86616.1] from Corchorus olitorius, SEQ ID NO:8 (protein, listed as Corchorus olitorius)
chain: MTRLVAGVILLLLSVTGIASAGRDATGDVLRLPSEASRFFRPSDDDEVGTRWAVLIAGSNGYWNYRHQADVCHAYQLLKKGGLKDENIIVFMYDDIAFNYENPRQGIIINSPHGDDVYQDVPKDYTGEEVTVHNFLAAILGNKTAIKGGSGKVVDSGPNDHIFIYYTDHGGPGVLGMPTYPYLYADELIDTLKKKHASGTYKSLVFYLEACESGSIFEGLLPEGLNIYATTASNADESSWGTYCPGEYPSPPPEYETCLGDLYSVAWMEDSDLHNLRTETLHQQYELVKRRTLNGNSAYGSHVMQYGDVGLAKEHLFLYLGTNPANDNFTFIDENSLQPPAKAVNQRDADLVHFWDKYRKAPDGSVRKVEAQKQVVEAMSHRMHVDNSIQLIGKLLFGIERGADVLKTVRPAGQPLVDDWKCLKSMVRTFETHCGSLAQYGMKHMRSIANICNAGIQTEQMAEASSQACVSIPSGQWSSIQKGFSA
byproducts [1]: significant byproducts of proteolytic reactions | proteolytic and protein ligation activities [1]: exhibited both proteolytic and protein ligation activities | proteolytic and protein ligation activities ([1]; listed as AEP_C13CO4): is a peptide ligase having the activity of OaAEP1 Cys247Ala | enzymatic catalytic efficiency compared with Quicklase ([1]; wild type AEP_C13C04): much slower

B2: Asn346Ala-Gln347Ala (protein)
chain: MVRYLAGAVLLLVVLSVAAAVSGARDGDYLHLPSEVSRFFRPQETNDDHGEDSVGTRWAVLIAGSKGYANYRHQAGVCHAYQILKRGGLKDENIVVFMYDDIAYNESNPRPGVIINSPHGSDVYAGVPKDYTGEEVNAKNFLAAILGNKSAITGGSGKVVDSGPNDHIFIYYTDHGAAGVIGMPSKPYLYADELNDALKKKHASGTYKSLVFYLEACESGSMFEGILPEDLNIYALTSTNTTESSWCYYCPAQENPPPPEYNVCLGDLFSVAWLEDSDVQNSWYETLNQQYHHVDKRISHASHATQYGNLKLGEEGLFVYMGSNPANDNYTSLDGNALTPSSIVVAARDADLLHLWEKFRKAPEGSARKEEAQTQIFKAMSHRVHIDSSIKLIGKLLFGIEKCTEILNAVRPAGQPLVDDWACLRSLVGTFETHCGSLSEYGMRHTRTIANICNAGISEEQMAEAASQACASIP
self-activation (auto-activation) (OaAEP1): can still be activated

B3: Asn346Ala-Asp349Ala-Asp351Ala (protein)
chain: MVRYLAGAVLLLVVLSVAAAVSGARDGDYLHLPSEVSRFFRPQETNDDHGEDSVGTRWAVLIAGSKGYANYRHQAGVCHAYQILKRGGLKDENIVVFMYDDIAYNESNPRPGVIINSPHGSDVYAGVPKDYTGEEVNAKNFLAAILGNKSAITGGSGKVVDSGPNDHIFIYYTDHGAAGVIGMPSKPYLYADELNDALKKKHASGTYKSLVFYLEACESGSMFEGILPEDLNIYALTSTNTTESSWCYYCPAQENPPPPEYNVCLGDLFSVAWLEDSDVQNSWYETLNQQYHHVDKRISHASHATQYGNLKLGEEGLFVYMGSNPANDNYTSLDGNALTPSSIVVAQRAAALLHLWEKFRKAPEGSARKEEAQTQIFKAMSHRVHIDSSIKLIGKLLFGIEKCTEILNAVRPAGQPLVDDWACLRSLVGTFETHCGSLSEYGMRHTRTIANICNAGISEEQMAEAASQACASIP
self-activation (auto-activation) (OaAEP1): can still be activated | self-activation (auto-activation) (OaAEP1; listed as A3): more severe loss of function phenotype

B4: Cys247Gly: OaAEP1 gate-keeper mutant Cys247 to Gly (protein)
chain: MVRYLAGAVLLLVVLSVAAAVSGARDGDYLHLPSEVSRFFRPQETNDDHGEDSVGTRWAVLIAGSKGYANYRHQAGVCHAYQILKRGGLKDENIVVFMYDDIAYNESNPRPGVIINSPHGSDVYAGVPKDYTGEEVNAKNFLAAILGNKSAITGGSGKVVDSGPNDHIFIYYTDHGAAGVIGMPSKPYLYADELNDALKKKHASGTYKSLVFYLEACESGSMFEGILPEDLNIYALTSTNTTESSWGYYCPAQENPPPPEYNVCLGDLFSVAWLEDSDVQNSWYETLNQQYHHVDKRISHASHATQYGNLKLGEEGLFVYMGSNPANDNYTSLDGNALTPSSIVVNQRDADLLHLWEKFRKAPEGSARKEEAQTQIFKAMSHRVHIDSSIKLIGKLLFGIEKCTEILNAVRPAGQPLVDDWACLRSLVGTFETHCGSLSEYGMRHTRTIANICNAGISEEQMAEAASQACASIP
alternative reaction when N-terminal amine is not available (peptide substrate; N-terminal amine group acetylated): catalyzes peptide hydrolysis as alternative reaction | ligase activity compared to WT OaAEP1 (peptide substrate; gate-keeper position 247 mutants): negatively affects the ligase activity

B5: Asp349Ala-Asp351Ala (protein)
chain: MVRYLAGAVLLLVVLSVAAAVSGARDGDYLHLPSEVSRFFRPQETNDDHGEDSVGTRWAVLIAGSKGYANYRHQAGVCHAYQILKRGGLKDENIVVFMYDDIAYNESNPRPGVIINSPHGSDVYAGVPKDYTGEEVNAKNFLAAILGNKSAITGGSGKVVDSGPNDHIFIYYTDHGAAGVIGMPSKPYLYADELNDALKKKHASGTYKSLVFYLEACESGSMFEGILPEDLNIYALTSTNTTESSWCYYCPAQENPPPPEYNVCLGDLFSVAWLEDSDVQNSWYETLNQQYHHVDKRISHASHATQYGNLKLGEEGLFVYMGSNPANDNYTSLDGNALTPSSIVVNQRAAALLHLWEKFRKAPEGSARKEEAQTQIFKAMSHRVHIDSSIKLIGKLLFGIEKCTEILNAVRPAGQPLVDDWACLRSLVGTFETHCGSLSEYGMRHTRTIANICNAGISEEQMAEAASQACASIP
self-activation (auto-activation) (OaAEP1): can still be activated
